Values quoted from earlier work as cited in publication PMC4526918.

Molecular target: HAESA-LIKE2 (HSL2) (Arabidopsis thaliana) (UniProt C0LGX3)
UniProt C0LGX3, sequence (C0LGX3 29-632): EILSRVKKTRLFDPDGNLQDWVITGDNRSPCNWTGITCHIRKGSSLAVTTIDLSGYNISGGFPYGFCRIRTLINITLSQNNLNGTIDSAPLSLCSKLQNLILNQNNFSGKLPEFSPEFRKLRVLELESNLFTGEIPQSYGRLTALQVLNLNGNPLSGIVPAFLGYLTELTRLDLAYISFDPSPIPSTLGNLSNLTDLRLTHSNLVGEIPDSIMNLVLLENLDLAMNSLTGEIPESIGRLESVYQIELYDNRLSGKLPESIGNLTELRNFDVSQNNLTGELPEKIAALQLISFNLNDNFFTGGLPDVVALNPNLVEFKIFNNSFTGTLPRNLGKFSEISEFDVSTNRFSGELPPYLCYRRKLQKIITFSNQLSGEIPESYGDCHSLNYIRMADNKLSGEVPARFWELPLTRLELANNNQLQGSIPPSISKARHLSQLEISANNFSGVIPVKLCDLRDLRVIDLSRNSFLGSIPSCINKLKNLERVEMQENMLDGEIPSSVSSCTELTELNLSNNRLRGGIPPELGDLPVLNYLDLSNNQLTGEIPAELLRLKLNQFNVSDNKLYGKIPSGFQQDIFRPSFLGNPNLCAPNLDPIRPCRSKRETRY

Kd: 20 nM
Substance: IDA peptide (IDAp) (from UniProt Q8LAD7)
